The values that follow come from PMC3527473, “The C-Terminus of ClpC1 of Mycobacterium tuberculosis Is Crucial for Its Oligomerization and Function” (PLoS ONE, 2012).

This data set concerns the molecule itself. The data set can be described thus: SEC; Superdex-200 (1×30 cm) in buffer A (50 mM Tris-HCl pH 7.6, 100 mM KCl, 5 mM DTT, 10% glycerol, 0.01% Triton X-100) with 15 mM ATP and 10 mM MgCl2; protein pre-incubated with 15 mM ATP and 10 mM MgCl2 for 30 min at 25°C; monomer to hexamer; fractions checked by SDS-PAGE.

B1: ClpC1-Δ3 (N-terminal truncated mutant, both N-terminal domains deleted) (domain or fragment)
chain: REGEGVAAQVLVKLGAELTRVRQQVIQLLSGYQGKEAAEAGTGGRGGESGSPSTSLVLDQFGRNLTAAAMEGKLDPVIGREKEIERVMQVLSRRTKNNPVLIGEPGVGKTAVVEGLAQAIVHGEVPETLKDKQLYTLDLGSLVAGSRYRGDFEERLKKVLKEINTRGDIILFIDELHTLVGAGAAEGAIDAASILKPKLARGELQTIGATTLDEYRKYIEKDAALERRFQPVQVGEPTVEHTIEILKGLRDRYEAHHRVSITDAAMVAAATLADRYINDRFLPDKAIDLIDEAGARMRIRRMTAPPDLREFDEKIAEARREKESAIDAQDFEKAASLRDREKTLVAQRAEREKQWRSGDLDVVAEVDDEQIAEVLGNWTGIPVFKLTEAETTRLLRMEEELHKRIIGQEDAVKAVSKAIRRTRAGLKDPKRPSGSFIFAGPSGVGKTELSKALANFLFGDDDALIQIDMGEFHDRFTASRLFGAPPGYVGYEEGGQLTEKVRRKPFSVVLFDEIEKAHQEIYNSLLQVLEDGRLTDGQGRTVDFKNTVLIFTSNLGTSDISKPVGLGFSKGGGENDYERMKQKVNDELKKHFRPEFLNRIDDIIVFHQLTREEIIRMVDLMISRVAGQLKSKDMALVLTDAAKALLAKRGFDPVLGARPLRRTIQREIEDQLSEKILFEEVGPGQVVTVDVDNWDGEGPGEDAVFTFTGTRKPPAEPDLAKAGAHSAGGPEPAAR
For B1, the binding result is reported as “binds”.
